Laboratory results: patent publication US20140227782A1 (UMUVERSIDAD DE VALLADOLID, published 2014)

Target: T1, Modified biopolymer 3' (biopolymer 3, 427 amino acids, structure D-B84, with amino groups transformed into … (amino groups of the lysines of peptide D transformed into azide groups (lysine transformation rate 50%); covalently grafted to alkynyl-functionalised glass by click cycloaddition)
T1 construct: In the assay it was grafted to a glass surface through 1,2,3-triazole links; also called POLYM; 3'
T1 chain: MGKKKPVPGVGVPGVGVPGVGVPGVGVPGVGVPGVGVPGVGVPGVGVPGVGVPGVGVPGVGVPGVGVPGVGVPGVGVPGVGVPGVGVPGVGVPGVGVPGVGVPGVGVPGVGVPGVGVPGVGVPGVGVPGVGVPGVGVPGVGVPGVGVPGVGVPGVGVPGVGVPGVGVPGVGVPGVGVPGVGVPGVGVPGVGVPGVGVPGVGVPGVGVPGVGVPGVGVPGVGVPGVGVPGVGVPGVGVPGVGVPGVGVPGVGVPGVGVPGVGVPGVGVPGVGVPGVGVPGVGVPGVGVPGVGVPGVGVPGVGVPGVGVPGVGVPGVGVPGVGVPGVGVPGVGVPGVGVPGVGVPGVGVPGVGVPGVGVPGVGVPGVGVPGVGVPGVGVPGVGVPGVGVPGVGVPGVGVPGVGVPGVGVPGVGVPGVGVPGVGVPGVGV
Test: ToF-SIMS of a glass surface grafted with polymer 3' after immersion in an aqueous solution of polymer 4

B1: Biopolymer 4 (371 amino acids), structure B14-A2-B14 (other)
chain: MESLLPVPGVGVPGVGVPGVGVPGVGVPGVGVPGVGVPGVGVPGVGVPGVGVPGVGVPGVGVPGVGVPGVGVPGVGVPGIGVPGIGVPGIGVPGIGVPGIGVPGIGVPGIGVPGIGVPGIGVPGIGAVTGRGDSPASSVPGIGVPGIGVPGIGVPGIGVPGIGVPGIGVPGIGVPGIGVPGIGVPGIGVPGIGVPGIGVPGIGVPGIGVPGIGVPGIGVPGIGVPGIGVPGIGVPGIGAVTGRGDSPASSVPGIGVPGIGVPGIGVPGIGVPGIGVPGIGVPGIGVPGIGVPGIGVPGIGVPGVGVPGVGVPGVGVPGVGVPGVGVPGVGVPGVGVPGVGVPGVGVPGVGVPGVGVPGVGVPGVGVPGVGV
notes: Unmodified polymer 4, adsorbed from aqueous solution onto the surface grafted with polymer 3'; also called POLYM
Question: Does B1 bind?
Answer: binds
